Results published in the supplement of paper PMC9112550, “Optimization of the antimicrobial peptide Bac7 by deep mutational scanning” (BMC Biology, 2022).

Test system: Escherichia coli TOP10
Test: shrunken log2 fold change of peptide-encoding DNA abundance (4.5 h post-induction vs induction); higher = less antimicrobial activity (less host growth inhibition)
Conditions: time post-induction: 4.5 h; library: site-saturation at positions 5, 18, 19, 20
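Note: peptides expressed intracellularly from a pBAD plasmid library in pooled LB shake-flask culture, induced with 0.3% L-arabinose, DNA abundance read by NGS, three biological replicates, DESeq2 with apeglm shrinkage.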

Going from RRIRHRPPRLPRPRPRPREKPRP to RRIRSRPPRLPRPRPRPSILPRP, the “shrunken log2 fold change” value falls from -0.0164 to -0.235.

RRIRYRPPRLPRPRPRPDCWPRP and RRIRDRPPRLPRPRPRPILIPRP are within 0.2 log units of each other in “shrunken log2 fold change” value: -0.105 for the first, -0.0335 for the second.

RRIRVRPPRLPRPRPRPEYLPRP and RRIRLRPPRLPRPRPRPWCEPRP are within 0.2 log units of each other in “shrunken log2 fold change” value: -0.191 for the first, -0.271 for the second.

RRIRHRPPRLPRPRPRPLSNPRP and RRIRTRPPRLPRPRPRPYRCPRP are within 0.2 log units of each other in “shrunken log2 fold change” value: -0.174 for the first, -0.123 for the second.

RRIRMRPPRLPRPRPRPIKHPRP and RRIRLRPPRLPRPRPRPVYTPRP are within 0.2 log units of each other in “shrunken log2 fold change” value: -0.0825 for the first, -0.0286 for the second.

Compared with RRIRHRPPRLPRPRPRPWVMPRP, RRIRGRPPRLPRPRPRPRRKPRP is higher in “shrunken log2 fold change” value: -0.166 for the first, 0.742 for the second.

RRIRPRPPRLPRPRPRPKMIPRP and RRIRERPPRLPRPRPRPFTYPRP are within 0.2 log units of each other in “shrunken log2 fold change” value: -0.0706 for the first, -0.0534 for the second.

Compared with RRIRKRPPRLPRPRPRPEVRPRP, RRIRPRPPRLPRPRPRPIPPPRP is lower in “shrunken log2 fold change” value: 1.86 for the first, -0.0888 for the second.

Going from RRIRQRPPRLPRPRPRPGGQPRP to RRIRGRPPRLPRPRPRPMRTPRP, the “shrunken log2 fold change” value rises from -0.137 to 2.

Going from RRIRYRPPRLPRPRPRPRFDPRP to RRIRQRPPRLPRPRPRPFQAPRP, the “shrunken log2 fold change” value rises from -0.51 to -0.207.

Compared with RRIRRRPPRLPRPRPRPTIRPRP, RRIRTRPPRLPRPRPRPVFIPRP is lower in “shrunken log2 fold change” value: 0.129 for the first, -0.475 for the second.

First: RRIRERPPRLPRPRPRPQFIPRP
Second: RRIRDRPPRLPRPRPRPNHHPRP
The “shrunken log2 fold change” value of the first is higher: -0.014 for the first, -0.539 for the second.

RRIRLRPPRLPRPRPRPGPMPRP and RRIRARPPRLPRPRPRPWFQPRP are within 0.2 log units of each other in “shrunken log2 fold change” value: 0.255 for the first, 0.0762 for the second.

Compared with RRIRIRPPRLPRPRPRPWGTPRP, RRIRDRPPRLPRPRPRPFPWPRP is higher in “shrunken log2 fold change” value: -0.859 for the first, -0.192 for the second.

RRIRLRPPRLPRPRPRPPHLPRP and RRIRMRPPRLPRPRPRPAKDPRP are within 0.2 log units of each other in “shrunken log2 fold change” value: -0.0637 for the first, 0.042 for the second.

First: RRIRIRPPRLPRPRPRPNGPPRP
Second: RRIRVRPPRLPRPRPRPNSPPRP
The “shrunken log2 fold change” value of the first is higher: 0.00676 for the first, -0.271 for the second.

Compared with RRIRHRPPRLPRPRPRPPDSPRP, RRIRGRPPRLPRPRPRPTACPRP is higher in “shrunken log2 fold change” value: 0.139 for the first, 1.35 for the second.

First: RRIRKRPPRLPRPRPRPYKGPRP
Second: RRIRLRPPRLPRPRPRPCPQPRP
The “shrunken log2 fold change” value of the first is higher: -0.185 for the first, -0.391 for the second.

Going from RRIRRRPPRLPRPRPRPFMEPRP to RRIRLRPPRLPRPRPRPSWRPRP, the “shrunken log2 fold change” value rises from 0.0534 to 0.276.

Compared with RRIRARPPRLPRPRPRPTHTPRP, RRIRYRPPRLPRPRPRPQRIPRP is lower in “shrunken log2 fold change” value: 0.664 for the first, -0.0956 for the second.

Going from RRIRCRPPRLPRPRPRPPEDPRP to RRIRIRPPRLPRPRPRPGQTPRP, the “shrunken log2 fold change” value falls from 0.754 to 0.0693.

Going from RRIRLRPPRLPRPRPRPTLGPRP to RRIRLRPPRLPRPRPRPVDCPRP, the “shrunken log2 fold change” value falls from 0.222 to -0.456.

First: RRIRCRPPRLPRPRPRPDMNPRP
Second: RRIRPRPPRLPRPRPRPGRCPRP
The “shrunken log2 fold change” value of the first is lower: -0.312 for the first, 0.442 for the second.

First: RRIRTRPPRLPRPRPRPNHMPRP
Second: RRIRKRPPRLPRPRPRPLNVPRP
The “shrunken log2 fold change” value of the first is lower: -0.792 for the first, 0.252 for the second.

Going from RRIRKRPPRLPRPRPRPWYCPRP to RRIRFRPPRLPRPRPRPRMSPRP, the “shrunken log2 fold change” value rises from -0.339 to 0.000208.

RRIRCRPPRLPRPRPRPNLGPRP and RRIRRRPPRLPRPRPRPHVIPRP are within 0.2 log units of each other in “shrunken log2 fold change” value: -0.283 for the first, -0.0937 for the second.

First: RRIRGRPPRLPRPRPRPRLTPRP
Second: RRIRFRPPRLPRPRPRPQTIPRP
The “shrunken log2 fold change” value of the first is higher: 0.948 for the first, -0.485 for the second.

RRIRNRPPRLPRPRPRPFHVPRP and RRIRKRPPRLPRPRPRPKVYPRP are within 0.2 log units of each other in “shrunken log2 fold change” value: -0.128 for the first, -0.124 for the second.

Compared with RRIRKRPPRLPRPRPRPTFGPRP, RRIRHRPPRLPRPRPRPDTEPRP is lower in “shrunken log2 fold change” value: 0.0674 for the first, -0.172 for the second.

First: RRIRNRPPRLPRPRPRPPALPRP
Second: RRIRDRPPRLPRPRPRPGPAPRP
The “shrunken log2 fold change” value of the first is lower: 0.132 for the first, 0.608 for the second.

Going from RRIRYRPPRLPRPRPRPYCSPRP to RRIRERPPRLPRPRPRPKITPRP, the “shrunken log2 fold change” value falls from -0.00208 to -0.514.

RRIRYRPPRLPRPRPRPRNDPRP and RRIRTRPPRLPRPRPRPQTEPRP are within 0.2 log units of each other in “shrunken log2 fold change” value: -0.205 for the first, -0.0173 for the second.

First: RRIRMRPPRLPRPRPRPWFLPRP
Second: RRIRWRPPRLPRPRPRPRPHPRP
The “shrunken log2 fold change” value of the first is lower: 0.0242 for the first, 0.408 for the second.

RRIRMRPPRLPRPRPRPNNVPRP and RRIRVRPPRLPRPRPRPTKWPRP are within 0.2 log units of each other in “shrunken log2 fold change” value: -0.0591 for the first, 0.0808 for the second.

Compared with RRIRTRPPRLPRPRPRPSVQPRP, RRIRMRPPRLPRPRPRPCGMPRP is higher in “shrunken log2 fold change” value: -0.0749 for the first, 0.134 for the second.

RRIRNRPPRLPRPRPRPILGPRP and RRIRVRPPRLPRPRPRPQLPPRP are within 0.2 log units of each other in “shrunken log2 fold change” value: -0.00992 for the first, -0.0715 for the second.

Going from RRIRDRPPRLPRPRPRPDFVPRP to RRIRMRPPRLPRPRPRPTTQPRP, the “shrunken log2 fold change” value falls from 1.35 to 0.081.

With RRIRPRPPRLPRPRPRPYYYPRP the “shrunken log2 fold change” value was -0.937.
